T1: NKp46 mutant Supp8 (human, UniProt O76036 22-304)
T1 construct: Expressed in transfected HEK293T cells; also called supplementary mutant Supp8
T1 chain: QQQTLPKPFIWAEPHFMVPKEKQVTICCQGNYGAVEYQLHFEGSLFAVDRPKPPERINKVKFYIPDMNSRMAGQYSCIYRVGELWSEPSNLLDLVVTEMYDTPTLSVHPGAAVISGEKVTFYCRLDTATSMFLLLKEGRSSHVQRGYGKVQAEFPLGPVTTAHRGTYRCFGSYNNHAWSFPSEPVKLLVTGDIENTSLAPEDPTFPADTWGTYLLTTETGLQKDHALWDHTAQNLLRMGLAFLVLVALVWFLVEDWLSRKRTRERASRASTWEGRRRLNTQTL

T2: NKp46 mutant 19 (human, UniProt O76036 22-304)
T2 construct: Expressed in transfected HEK293T cells
T2 chain: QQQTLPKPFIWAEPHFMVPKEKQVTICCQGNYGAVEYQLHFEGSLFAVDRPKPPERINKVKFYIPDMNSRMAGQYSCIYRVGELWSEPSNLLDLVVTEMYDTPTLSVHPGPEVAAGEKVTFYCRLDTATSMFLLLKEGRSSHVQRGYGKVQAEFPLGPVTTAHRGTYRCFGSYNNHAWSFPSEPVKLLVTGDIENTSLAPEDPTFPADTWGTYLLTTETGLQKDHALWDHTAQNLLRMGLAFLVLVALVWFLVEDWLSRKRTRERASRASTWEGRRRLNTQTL


Legend:
[1] = molecular target: T3, Human NKp46 recombinant proteins (human, UniProt O76036 22-258); experiment: SPR, bispecific captured on Protein-A chip, human NKp46 injected, 1:1 kinetic model
T3 construct: also called recombinant human NKp46 proteins
Procedure: SPR measurements were performed on a Biacore T100 apparatus (Biacore GE Healthcare) at 25° C. In all Biacore experiments HBS-EP+(Biacore GE Healthcare) and NaOH 10 mM served as running buffer and regeneration buffer respectively. Sensorgrams were analyzed with Biacore T100 Evaluation software. Protein-A was purchase from (GE Healthcare). Human NKp46 recombinant proteins were cloned, produced and purified at Innate Pharma.
Protein-A proteins were immobilized covalently to carboxyl groups in the dextran layer on a Sensor Chip CM5. The chip surface was activated with EDC/NHS (N-ethyl-N′-(3-dimethylaminopropyl) carbodiimidehydrochloride and N-hydroxysuccinimide (Biacore GE Healthcare)). Protein-A was diluted to 10 μg/ml in coupling buffer (10 mM acetate, pH 5.6) and injected until the appropriate immobilization level was reached (i.e. 2000 RU). Deactivation of the remaining activated groups was performed using 100 mM ethanolamine pH 8 (Biacore GE Healthcare).
Monovalent affinity study was done following a regular Capture-Kinetic protocol recommended by the manufacturer (Biacore GE Healthcare kinetic wizard). Seven serial dilutions of human NKp46 recombinant proteins, ranging from 6.25 to 400 nM were sequentially injected over the captured Bi-Specific antibodies and allowed to dissociate for 10 min before regeneration. The entire sensorgram sets were fitted using the 1:1 kinetic binding model.

human FcRn (Example 10) = molecular target: T4, human FcRn (Example 10) (human, UniProt P55899 24-297; P61769 21-119, limits assumed); experiment: SPR, FcRn immobilized on CM5, Steady State
T4 construct: Construct not described; Beta-2-microglobulin is not mentioned; also called recombinant FcRn proteins
T4 sequence (P55899 24-297 limits assumed, form in doubt, chain 1 of 2): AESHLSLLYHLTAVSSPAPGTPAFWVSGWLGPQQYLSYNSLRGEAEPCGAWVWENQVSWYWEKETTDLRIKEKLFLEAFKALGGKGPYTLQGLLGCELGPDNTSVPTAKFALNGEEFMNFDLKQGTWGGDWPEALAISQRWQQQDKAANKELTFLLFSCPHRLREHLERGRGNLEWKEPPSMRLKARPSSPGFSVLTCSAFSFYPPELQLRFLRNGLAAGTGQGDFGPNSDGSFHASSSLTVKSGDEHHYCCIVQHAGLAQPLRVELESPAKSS
T4 sequence (P61769 21-119 limits assumed, form in doubt, chain 2 of 2): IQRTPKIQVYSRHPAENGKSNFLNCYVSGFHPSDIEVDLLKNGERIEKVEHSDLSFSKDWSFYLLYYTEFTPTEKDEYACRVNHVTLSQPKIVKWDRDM

NKp46 mutant Supp8 = molecular target: T1, NKp46 mutant Supp8; experiment: flow cytometry on HEK293T cells transfected with NKp46 mutant Supp8 (P132A, E133A; printed 'Mutant S8'), antibody titrated 0.001-1 ug/ml
NKp46 mutant 19 = molecular target: T2, NKp46 mutant 19; experiment: flow cytometry on HEK293T cells transfected with NKp46 mutant 19 (I135A, S136A), antibody titrated 0.001-1 ug/ml

| Binder | Kd [1] [nM] | koff [1] [s⁻¹] | kon [1] [M⁻¹ s⁻¹] | Kd (human FcRn (Example 10)) [nM] | binding result (NKp46 mutant Supp8) | binding result (NKp46 mutant 19) |
| --- | --- | --- | --- | --- | --- | --- |
| CD19-F4-NKp46-3 (bispecific antibody, Single chain with tandem CH3 and N297S) DIQLTQSPASLAVSLGQRATISCKASQSVDYDGDSYLNWYQQIPGQPPKLLIYDASNLVSGIPPRFSGSGSGTDFTLNIHPVEKVDAATYHCQQSTEDPWTFGGGTKLEIKGGGGSGGGGSGGGGSQVQLQQSGAELVRPGSSVKISCKASGYAFSSYWMNWVKQRPGQGLEWIGQIWPGDGDTNYNGKFKGKATLTADESSSTAYMQLSSLASEDSAVYFCARRETTTVGRYYYAMDYWGQGTTVTVSSGGGSSAPELLGGPSVFLFPPKPKDTLMISRTPEVTCVVVDVSHEDPEVKFNWYVDGVEVHNAKTKPREEQYSSTYRVVSVLTVLHQDWLNGKEYKCKVSNKALPAPIEKTISKAKGQPREPQVYTLPPSREEMTKNQVSLTCLVKGFYPSDIAVEWESNGQPENNYKTTPPVLDSDGSFFLYSKLTVDKSRWQQGNVFSCSVMHEALHNHYTQKSLSLSPGGGGGSGGGGSGGGGSGQPREPQVYTLPPSREEMTKNQVSLTCLVKGFYPSDIAVEWESNGQPENNYKTTPPVLDSDGSFFLYSKLTVDKSRWQQGNVFSCSVMHEALHNHYTQKSLSLSPGSTGSEVQLQQSGPELVKPGASVKISCKTSGYTFTEYTMHWVKQSHGKSLEWIGGISPNIGGTSYNQKFKGKATLTVDKSSSTAYMELRSLTSEDSAVYYCARRGGSFDYWGQGTTLTVSSVEGGSGGSGGSGGSGGVDDIVMTQSPATLSVTPGDRVSLSCRASQSISDYLHWYQQKSHESPRLLIKYASQSISGIPSRFSGSGSGSDFTLSINSVEPEDVGVYYCQNGHSFPLTFGAGTKLELK | 30 | 0.011 | 368000 | 712 | – | – |
| NKp46-9 (antibody, V domains shown, not in the list MOLECULES as an antibody; also called antibody NKp46-9; monoclonal antibody NKp46-9) VH: DVQLQESGPGLVKPSQSLSLTCTVTGYSITSDYAWNWIRQFPGNKLEWMGYITYSGSTNYNPSLKSRISITRDTSKNQFFLQLNSVTTEDTATYYCARCWDYALYAMDCWGQGTSVTVSS VL: DIQMTQSPASLSASVGETVTITCRTSENIYSYLAWCQQKQGKSPQLLVYNAKTLAEGVPSRFSGSGSGTHFSLKINSLQPEDFGIYYCQHHYDTPLTFGAGTKLELK | – | – | – | – | binds | binds |
| NKp46-1 (antibody, V domains shown, also called Antibody NKp46-1; parental human IgG1 chimeric antibody NKp46-1) VH: QVQLQQSGPELVKPGASVKMSCKASGYTFTDYVINWGKQRSGQGLEWIGEIYPGSGTNYYNEKFKAKATLTADKSSNIAYMQLSSLTSEDSAVYFCARRGRYGLYAMDYWGQGTSVTVSS VL: DIQMTQTTSSLSASLGDRVTISCRASQDISNYLNWYQQKPDGTVKLLIYYTSRLHSGVPSRFSGSGSGTDYSLTINNLEQEDIATYFCQQGNTRPWTFGGGTKLEIK | – | – | – | – | binds | binds |
| CD19-F9A-NKp46-3 (bispecific antibody, human IgG1, kappa, Heterotrimer with monomeric Fc (tandem CH3, N297S) and wild-type hinge cysteines) chain 1: not shown chain 2: not shown chain 3: DIVMTQSPATLSVTPGDRVSLSCRASQSISDYLHWYQQKSHESPRLLIKYASQSISGIPSRFSGSGSGSDFTLSINSVEPEDVGVYYCQNGHSFPLTFGAGTKLELKASTKGPSVFPLAPSSKSTSGGTAALGCLVKDYFPEPVTVSWNSGALTSGVHTFPAVLQSSGLYSLSSVVTVPSSSLGTQTYICNVNHKPSNTKVDKRVEPKSCDKTH | 32 | 0.00669 | 207000 | 858 | – | – |
| CD19-F1-NKp46-3 (bispecific antibody, Single chain F1 format; also called bi-specific antibody NKp46-3 (F1)) DIQLTQSPASLAVSLGQRATISCKASQSVDYDGDSYLNWYQQIPGQPPKLLIYDASNLVSGIPPRFSGSGSGTDFTLNIHPVEKVDAATYHCQQSTEDPWTFGGGTKLEIKGGGGSGGGGSGGGGSQVQLQQSGAELVRPGSSVKISCKASGYAFSSYWMNWVKQRPGQGLEWIGQIWPGDGDTNYNGKFKGKATLTADESSSTAYMQLSSLASEDSAVYFCARRETTTVGRYYYAMDYWGQGTTVTVSSGGGSSAPELLGGPSVFLFPPKPKDTLMISRTPEVTCVVVDVSHEDPEVKFNWYVDGVEVHNAKTKPREEQYNSTYRVVSVLTVLHQDWLNGKEYKCKVSNKALPAPIEKTISKAKGQPREPQVYTKPPSREEMTKNQVSLSCLVKGFYPSDIAVEWESNGQPENNYKTTVPVLDSDGSFRLASYLTVDKSRWQQGNVFSCSVMHEALHNHYTQKSLSLSPGSTGSEVQLQQSGPELVKPGASVKISCKTSGYTFTEYTMHWVKQSHGKSLEWIGGISPNIGGTSYNQKFKGKATLTVDKSSSTAYMELRSLTSEDSAVYYCARRGGSFDYWGQGTTLTVSSVEGGSGGSGGSGGSGGVDDIVMTQSPATLSVTPGDRVSLSCRASQSISDYLHWYQQKSHESPRLLIKYASQSISGIPSRFSGSGSGSDFTLSINSVEPEDVGVYYCQNGHSFPLTFGAGTKLELK | 9.14 | 0.000644 | 70500 | – | – | – |
| CD19-F1-NKp46-4 (bispecific antibody, Single chain F1 format) DIQLTQSPASLAVSLGQRATISCKASQSVDYDGDSYLNWYQQIPGQPPKLLIYDASNLVSGIPPRFSGSGSGTDFTLNIHPVEKVDAATYHCQQSTEDPWTFGGGTKLEIKGGGGSGGGGSGGGGSQVQLQQSGAELVRPGSSVKISCKASGYAFSSYWMNWVKQRPGQGLEWIGQIWPGDGDTNYNGKFKGKATLTADESSSTAYMQLSSLASEDSAVYFCARRETTTVGRYYYAMDYWGQGTTVTVSSGGGSSAPELLGGPSVFLFPPKPKDTLMISRTPEVTCVVVDVSHEDPEVKFNWYVDGVEVHNAKTKPREEQYNSTYRVVSVLTVLHQDWLNGKEYKCKVSNKALPAPIEKTISKAKGQPREPQVYTKPPSREEMTKNQVSLSCLVKGFYPSDIAVEWESNGQPENNYKTTVPVLDSDGSFRLASYLTVDKSRWQQGNVFSCSVMHEALHNHYTQKSLSLSPGSTGSQVQLQQSAVELARPGASVKMSCKASGYTFTSFTMHWVKQRPGQGLEWIGYINPSSGYTEYNQKFKDKTTLTADKSSSTAYMQLDSLTSDDSAVYYCVRGSSRGFDYWGQGTLVTVSAVEGGSGGSGGSGGSGGVDDIQMIQSPASLSVSVGETVTITCRASENIYSNLAWFQQKQGKSPQLLVYAATNLADGVPSRFSGSGSGTQYSLKINSLQSEDFGIYYCQHFWGTPRTFGGGTKLEIK | 4.85 | 0.000653 | 135000 | – | – | – |
| CD19-F1-NKp46-2 (bispecific antibody, Single chain F1 format; also called bi-specific antibody NKp46-2 (F1)) DIQLTQSPASLAVSLGQRATISCKASQSVDYDGDSYLNWYQQIPGQPPKLLIYDASNLVSGIPPRFSGSGSGTDFTLNIHPVEKVDAATYHCQQSTEDPWTFGGGTKLEIKGGGGSGGGGSGGGGSQVQLQQSGAELVRPGSSVKISCKASGYAFSSYWMNWVKQRPGQGLEWIGQIWPGDGDTNYNGKFKGKATLTADESSSTAYMQLSSLASEDSAVYFCARRETTTVGRYYYAMDYWGQGTTVTVSSGGGSSAPELLGGPSVFLFPPKPKDTLMISRTPEVTCVVVDVSHEDPEVKFNWYVDGVEVHNAKTKPREEQYNSTYRVVSVLTVLHQDWLNGKEYKCKVSNKALPAPIEKTISKAKGQPREPQVYTKPPSREEMTKNQVSLSCLVKGFYPSDIAVEWESNGQPENNYKTTVPVLDSDGSFRLASYLTVDKSRWQQGNVFSCSVMHEALHNHYTQKSLSLSPGSTGSEVQLQESGPGLVKPSQSLSLTCTVTGYSITSDYAWNWIRQFPGNKLEWMGYITYSGSTSYNPSLESRISITRDTSTNQFFLQLNSVTTEDTATYYCARGGYYGSSWGVFAYWGQGTLVTVSAVEGGSGGSGGSGGSGGVDDIQMTQSPASLSASVGETVTITCRVSENIYSYLAWYQQKQGKSPQLLVYNAKTLAEGVPSRFSGSGSGTQFSLKINSLQPEDFGSYYCQHHYGTPWTFGGGTKLEIK | 8.93 | 0.00145 | 162000 | – | – | – |

Source: patent publication US20240141042A1 (INNATE PHARMA, published 2024)
